Results on one molecule are retold here after patent US20180135109, “EVALUATION OF CAS9 MOLECULE/GUIDE RNA MOLECULE COMPLEXES” (EDITAS MEDICINE, INC., published 2018).

This series has as its target Cas9 (Streptococcus pyogenes, UniProt Q99ZW2 SEQ:1-1368). Kind of series: DSF, no thermal shift with alien gRNA; 10 mM Hepes pH 7.5, 150 mM NaCl; 1 uM gRNA. The note with it: gRNA scaffold; printed as encoding DNA. Here is the method: DSF was also used to examine Cas9 molecule/gRNA molecule complexes. S. pyogenes Cas9 alone, S. pyogenes Cas9 with 1 μM S. pyogenes gRNA, and S. pyogenes Cas9 with 1 μM S. aureus gRNA were tested in H150 (10 mM Hepes pH 7.5, 150 mM NaCl). The DNA sequences encoding the gRNA molecules used in these experiments were: […]
(In general: In DSF a fluorescence change marks the thermal transition of the protein.)

Sequence of Cas9 (Q99ZW2 whole entry): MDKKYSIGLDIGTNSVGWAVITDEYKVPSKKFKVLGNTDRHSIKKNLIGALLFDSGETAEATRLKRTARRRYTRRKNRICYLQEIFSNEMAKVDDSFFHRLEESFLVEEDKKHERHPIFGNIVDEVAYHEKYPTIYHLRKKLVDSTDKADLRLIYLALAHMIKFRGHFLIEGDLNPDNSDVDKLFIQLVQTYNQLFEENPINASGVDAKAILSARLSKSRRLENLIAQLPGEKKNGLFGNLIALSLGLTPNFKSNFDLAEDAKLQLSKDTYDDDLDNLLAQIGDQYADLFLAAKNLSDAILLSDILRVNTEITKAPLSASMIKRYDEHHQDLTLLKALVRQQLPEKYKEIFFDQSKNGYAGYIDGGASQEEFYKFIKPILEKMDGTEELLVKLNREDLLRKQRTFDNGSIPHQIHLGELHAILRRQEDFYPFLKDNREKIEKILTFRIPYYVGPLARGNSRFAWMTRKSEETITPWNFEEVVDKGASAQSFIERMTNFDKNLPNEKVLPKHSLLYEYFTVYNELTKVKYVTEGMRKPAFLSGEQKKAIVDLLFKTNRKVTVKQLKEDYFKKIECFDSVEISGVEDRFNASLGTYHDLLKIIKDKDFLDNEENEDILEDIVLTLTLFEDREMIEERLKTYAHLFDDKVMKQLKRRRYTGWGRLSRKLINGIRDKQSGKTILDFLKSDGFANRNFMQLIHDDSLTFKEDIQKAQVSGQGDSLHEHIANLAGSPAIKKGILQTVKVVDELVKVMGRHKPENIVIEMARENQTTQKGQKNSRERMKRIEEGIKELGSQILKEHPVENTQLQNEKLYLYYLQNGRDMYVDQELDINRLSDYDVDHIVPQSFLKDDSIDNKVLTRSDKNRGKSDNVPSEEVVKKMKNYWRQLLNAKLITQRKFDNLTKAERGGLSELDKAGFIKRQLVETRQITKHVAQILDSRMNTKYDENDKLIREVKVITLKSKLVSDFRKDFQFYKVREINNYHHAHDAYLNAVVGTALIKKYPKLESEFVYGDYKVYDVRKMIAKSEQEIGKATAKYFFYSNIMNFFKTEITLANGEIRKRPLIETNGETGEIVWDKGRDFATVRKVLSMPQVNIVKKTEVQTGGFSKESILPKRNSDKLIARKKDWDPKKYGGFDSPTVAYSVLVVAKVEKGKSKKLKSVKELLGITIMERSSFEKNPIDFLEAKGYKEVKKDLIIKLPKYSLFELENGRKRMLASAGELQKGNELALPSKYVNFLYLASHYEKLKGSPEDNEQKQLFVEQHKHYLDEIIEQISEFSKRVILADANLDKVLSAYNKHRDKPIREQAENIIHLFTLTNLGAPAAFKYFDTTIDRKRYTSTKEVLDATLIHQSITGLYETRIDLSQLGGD

B1: S. aureus gRNA scaffold (ssRNA)
RNA: GUUUUAGUACUCUGGAAACAGAAUCUACUAAAACAAGGCAAAAUGCCGUGUUUAUCUCGUCAACUUGUUGGCGAGAUUUU
Take B1: the binding result is on record as “no binding”.
